Laboratory results from publication PMC10728891.

How the values were obtained:
[1] = target: human insulin (human) (UniProt P01308); experiment: AUC; sedimentation velocity, 300 μM insulin, […] m-cresol, […] ZnCl2, 25 mM tris buffer pH 8.0, interference optics
[2] = target: human insulin (human) (UniProt P01308); experiment: circular dichroism, dissociation kinetics after dilution; 600 μM insulin, 250 μM ZnCl2, 25 mM m-cresol, 25 mM tris pH 8 (R6 hexamer), diluted 150-fold into 25 mM tris pH 8.0; ellipticity at 222 nm over 120 s at 25 °C; monoexponential fit; hexamer to monomers

stoichiometry N [1]: 6 | t1/2 of hexamer dissociation [2]: 18.4 s
Substance: human insulin (from UniProt P01308 25-54; P01308 90-110) (natural protein)
